Measurements taken from the nanobody polyreactivity screen of Harvey et al. (2022).

Assay: yeast display, Sf9 membrane polyspecificity reagent, FACS + sequencing; frameworks hold sequencing errors
Summary of the method: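 Nanobodies from a synthetic yeast display library (Saccharomyces cerevisiae BJ5465), induced 36–48 hours with galactose, were stained 1 hour at 4 °C with 10% biotinylated, detergent-solubilized Sf9 membrane reagent, enriched on streptavidin microbeads, then FACS-sorted. Anti-HA (expression) and streptavidin (reagent binding) fluorescence set low and high (top ~1%) gates. Polyreactivity labels come from the gate of origin. Genes were colony-PCR amplified, MiSeq 2 × 250 sequenced and filtered by CDR length.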

Sequence	polyreactivity (PSR sort gate)
QVQLVESGGGLVQAGGSLRLSCAASGLIFYENAMGWYRQAPGKERELVAAINYDGDSTYYADSVKGRFTISRDNAKNTVYLQMNSLKPEDTAVYYCAADGGWVLFWMDYWGQGTQVTVSS	low polyreactivity
QVQLVESGGGLVQAGGSLRLSCAASGLIFYGNAMGWYREAPGKERELVAAISRRGGRTYYADSVKGRYTISRDNAKNTVYLQMNSLKPEDTAVYYCAAGVPKNGQAGYDYWGQGTQVTVSS	high polyreactivity
QVQLVESGGGLVQAGGSLRLSCAASGLIFYGYVMGWYRQAPGKERELVAGISRNSGSTYYADSVKGRFTISRDNAKTTVYLQMNSLKPEDTAVYYCAKAYYRRYAAPGYDYWGQGTQVTVSS	low polyreactivity
QVQLVESGGGLVQAGGSLRLSCAASGLIFYLYAMGWYRQAPGKERELVAAITSGGGSTYYADSVKGRFTISRDNAKNTVYLQMNSLKPEDTAVYYCAARLVLYITVVYEDDYWGQGTQVTVSS	low polyreactivity
QVQLVESGGGLVQAGGSLRLSCAASGLIFYLYTMGWYRQAPGQERELVAAISRSGGSTYYADSVKGRFTISRDNAKNTVYVQMNSLKPEDPAVYYCAALRSRSTYNDYNYWGQGTQVTVSS	high polyreactivity
QVQLVESGGGLVQAGGSLRLSCAASGLIFYRNAMGWYRQAPGKERELVAAIRFSTGSTYYADSVKGRFTISRDNAKNTVYLQMNSLKPEDTAVYYCAADRRYYWYNYWGQGTQVNVSS	high polyreactivity
QVQLVESGGGLVQAGGSLRLSCAASGLIFYRNAMGWYRQAPGKERELVAAISVSGGRTYYADSVKGRFTISRDNAKNTVYLQMNSLKPEDTAVYYCAAYGTTRMDYWGQGTQVTVSS	high polyreactivity
QVQLVESGGGLVQAGGSLRLSCAASGLIFYRYAMGWYRQAPGKERELVAAISARGSSTYYADSVKGRFTISRDNAKNTVYLQMNSLKPEDTAVYYCAAGATGTSYYGGDYWGQGTQVTVSS	high polyreactivity
QVQLVESGGGLVQAGGSLRLSCAASGLIFYRYTMGWYRQAPGKERELVAAITSTGTSTYYADSVKGRFTISRDNAKNTVYLQMNSLKPEDTAVYYCAARYIARGKWDYDYWGQGTQVTVSS	high polyreactivity
QVQLVESGGGLVQAGGSLRLSCAASGLIFYRYVMGWYRQAPGKEREFVAAISSGGSTYYADSVKGLFTISRDNAKNTVYLQMNSLKPEDTAVYYCNTLSQVFASRAPKFDYWGQGTQVTVSS	high polyreactivity
QVQLVESGGGLVQAGGSLRLSCAASGLIFYVYAMGWYRQAPGKERELVATISSSGGSTYYADSVKGRFTISRDNAKNTVYLQMNSLKPEDTAVYYCAARWSHYRTGWGDTSYHYYYWGQGTQVTVSS	high polyreactivity
QVQLVESGGGLVQAGGSLRLSCAASGLIFYYYAMGWYRQAPGKERELVAAITAIGDRTYYADSVKGRFTISRDNAKNTVYLQMNSLKPEDTAVYYCAAGWLLYNRYGIITYDYWGQGTQVTVSS	high polyreactivity
QVQLVESGGGLVQAGGSLRLSCAASGLIFYYYAMGWYRQAPGKERELVAAITTGGGTYYADSVKGRFTISRDNAKNTVYLQMNSLKPEDTAVYYCAVYYRSYWGYEYWGQGTQVTVSS	high polyreactivity
QVQLVESGGGLVQAGGSLRLSCAASGLIIDGYAMGWSRQAPGKERELVATITVSGTSTYYADSVKGRFTISRDNAKNTVYLQMNSLKPEDTAVYYFATDRNYGYYFVEYDHDYWGQGTQVTVSS	low polyreactivity
QVQLVESGGGLVQAGGSLRLSCAASGLIIRYYAMGWYRQAPGKERELVAAISYNGGSTYYADSVKGRFTISRDNAKNTVYLQMNSLKPEDTAVYYCAARGRYRIGPGRYGKRYDYWGQGTQVTVSS	high polyreactivity
QVQLVESGGGLVQAGGSLRLSCAASGLILDGYAMGWYRQAPGKERELVAAITRSGGRTYYADSVKGRFTISRDNAKNTVYLQMKSLKPEDPAVYYCAALGWSGRYRYDYWGQGTQVTVSS	high polyreactivity
QVQLVESGGGLVQAGGSLRLSCAASGLILGVYTMGWYRQAPGKEREFVASINYGGGSTYYADSVKGRFTISRDNAKNTVYLQMNSLKPEDTAVYYCNARSRWGGTRLYSYDYWGQGTQVTVSS	low polyreactivity
QVQLVESGGGLVQAGGSLRLSCAASGLILGYYAMGWYRQAPGKERELVAAISSTGSTNYADSVKGRFTISRDNAKNTVYLQMNSLKPEDTAVYYCAAVPPRKDYQHMDYWGQGTQVTVSS	low polyreactivity
QVQLVESGGGLVQAGGSLRLSCAASGLILPYYAMGWYSQARGKERELVAAISRTGGRTSYADSVKVRFTISRDNAKNTVYLLINSLKPEDTAVYYCAAVGQSGGRRYDYWGQGTQVTVSS	high polyreactivity
QVQLVESGGGLVQAGGSLRLSCAASGLILPYYTMGWYRQAPGTERELVAAITWGGDSTYYADSVKGRFTISRDNAKNTVYLQMNRLKPEDTAVFYCAAYPQRRFYWQYRYDYWGQGTQVTGSS	high polyreactivity
QVQLVESGGGLVQAGGSLRLSCAASGLILQYYVMGWYRQAPGKERELVAAITRSGGGTYYADSVKGRFTISRDKAKNTVYLQMNSLIPEDTAVYYCAAQRQYGKFDYWGQGTQVTVSS	high polyreactivity
QVQLVESGGGLVQAGGSLRLSCAASGLILSAYAMGWYRQAPGKERELVAAISGSGGRTYYADSVKGRFTISRDNAKNTVYLQMNSLKPEDTAVYYCAAPYTYVGSYTYNYWGQGTQVTVSS	high polyreactivity

Sequence	polyreactivity (PSR sort gate)
QVQLVESGGGLVQAGGSLRLSCAASGLILSDYAMGWYRQAPGKERELVATITSVGTTKYADSVKGRFTISRDNAKNTVYLQMNSLKPEDTAVYYCAVEWYQGTTYSISYLYDYWGQGTQVTVSS	low polyreactivity
QVQLVESGGGLVQAGGSLRLSCAASGLILVPNTMGWYRQAPGKERELVAAISYSGGGTYYADSVKGRFTISRDNAKNTVYLQMNSLKAEDTAVYYCAAYVKRESAPYGYWGHGTQVTVSS	low polyreactivity
QVQLVESGGGLVQAGGSLRLSCAASGLILYYYAMGWYRQAPGKEREFVAAISGRGGSTYYADSVKGRFTISRDNAKNTVYLQMNSLKPEDTAVYYCAARVWYKYDHWGQGTQVTVSS	high polyreactivity
QVQLVESGGGLVQAGGSLRLSCAASGLILYYYDMGWYRQAPGKERELVAAISWNGDDTYYADSVKGRFTISRDNAKNTVYLQMNSLKPEDTAVYYCAAEGPPQTDDYWGQGTQVTVSS	high polyreactivity
QVQLVESGGGLVQAGGSLRLSCAASGLISYAYAMGWYRQAPGKERELVAAIRSSGSTYYADSVKGRFTISRDNAKNTVYLQMNSLKPEDTAVYYCAAYVWRRGDGYYYWGQGTQVTVSS	high polyreactivity
QVQLVESGGGLVQAGGSLRLSCAASGLISYHYAMGWYRQAPGKERELVASISYTGGSTFYADSVKGRFTISRDNAKNTVYLQMNSLKPEDTAVYYCAAYRIWRPSYYYWGQGTQVTVSS	high polyreactivity
QVQLVESGGGLVQAGGSLRLSCAASGLISYRNAMGWYRQAPGKERELVAAISSDGSTYYADSVKGRFTISRDNAKNTVYLQMNSLKPVDTAVYYCAADYREFDAYGAARTLDFDYWGQGTQVTVSS	low polyreactivity
QVQLVESGGGLVQAGGSLRLSCAASGLIYVGNAMGWYRQAPGKERELVAAISSRGGRTYYADSVKGRFTISRDNAKNSVYLQMNSLKPEDSAVYYCNAANSQWGFEYWGQGTQVTVSS	high polyreactivity
QVQLVESGGGLVQAGGSLRLSCAASGLMLGYYAMGWYRQAPGKERELGATIRRGASTYYADSVKGRLTISRDNAKNTVYLQMNSLKPEDTALYYCAAYGHQFQGDYNYWGPGTQVTVSS	low polyreactivity
QVQLVESGGGLVQAGGSLRLSCAASGLNFRAYAMGWYRQAPGKERELVAAITWNGGSTNYADSVKGRFTISRDNAKNTVYLQMNSLKPEDTAVYYCNKYRISGLSKFYYWGQGTQVTVSS	high polyreactivity
QVQLVESGGGLVQAGGSLRLSCAASGLPSKLMHMGWYRQAPGKERELVAAISSSGGRTYYADSVKGRITISRDNAKNTVYLQMNILKPEDTAVYYCAATARYRSYSASYYWGQGTQVTVSS	high polyreactivity
QVQLVESGGGLVQAGGSLRLSCAASGLSFGIYAIGWYRKAPGKERELVAAISRSGGSTYYADSVKGRFTISRDNAKNTVYLQMNSLKPEDTAVYYCAAPYYVGYDYWGQGTQVTVSS	high polyreactivity
QVQLVESGGGLVQAGGSLRLSCAASGLSFRRYAMGWYRQAPGKEREFVATISRRGGSTRYADSVKGRFTISRDNAKNTVYLQMKSLKPEDTAVYYCNKVEYASIAKGYDYWGQGTQVTVSS	high polyreactivity
QVQLVESGGGLVQAGGSLRLSCAASGLSSLRMLWDGIDRRLGKKGSWLPLITSGGDSTNYADSVKGRFTISRDNAKNTVYLQMNSLKPEDTAVYYCAADLDYPYGYWGQGTQVTVSS	low polyreactivity
QVQLVESGGGLVQAGGSLRLSCAASGLTCRYNAMGWYRQAPGKERELVAGIRISGGNTRYADAVKGRCTISRDNAKKSVYLQMNSLKPEDTAVYYCSALTGFYNLRPYGYWGQGTQVTVSS	high polyreactivity
QVQLVESGGGLVQAGGSLRLSCAASGLTFAAYAMGWYRQAPGKEREMVAAISRRGGSTYYADSVKGRFTISRDNAKNTVYLQMNRLKPEDTAVYYCARGGSRLTQGWLVTPYDYDYWGQGTQVNVSS	high polyreactivity
QVQLVESGGGLVQAGGSLRLSCAASGLTFAFYAMGWYRQAPGKERELVAAISGSGGSTNYADSVKGRFTISRDNAKNTVYLQMNSLKPEDTAVYYCAATYTYSWAYGYWGQGTQVTVSS	high polyreactivity
QVQLVESGGGLVQAGGSLRLSCAASGLTFAKYAMGWYRQEPGKEREFVAAITYSGGTTYYADSVKGRFTISRDNAKNTVYLQMNSLKPEDTAVYYCNTRSTLGYYWGQGTQVTVSS	high polyreactivity
QVQLVESGGGLVQAGGSLRLSCAASGLTFARYAMGWSRQAPGKERELVAAISSSGGTKYADSVKGRFTISRDNAKNTVYLQMNSLIPEDTAVYYCNADAVVERSSVWYYWSIYEYWGQGTQVTVSS	low polyreactivity
QVQLVESGGGLVQAGGSLRLSCAASGLTFAVYAMGWYRQAPGKERELVASITRSGGSTYYADSVKGRFTISRDNAKNTVYLQMNSLKPEDTAVYYCAAQTIYSGRYYYYSRYDYWGQGTQVTVSS	high polyreactivity
QVQLVESGGGLVQAGGSLRLSCAASGLTFDHYTMGWYRQATGLERELVAAITKNGGSTYYADSVKGRFTISRDNAKNTVYLQMISLKPEDTAVYYCNVGPRRVDRSRAASSDYDYWGQGTQVTVSS	high polyreactivity
